Laboratory results published in paper PMC3412864 (PLoS ONE, 2012).
Changes are numbered by the printed parent chain. Numbers in names are those of the source.

B1: Gluconacetobacter hansenii chromate reductase (Gh-ChrR) (enzyme, Gluconacetobacter hansenii ATCC 23769)
chain: MTTTSPLHFVTLLGSLRKASFNAAVARALPEIAPEGIAITPLGSIGTFPHYSQDVQEEGFPAPVLTMAQQIATADAVVIVTPEYNYSVPGVLKNAIDWLSRVSPQPLAGKPVALVTASPGMIGGARAQYHLRQSLVFLDAYVLNRPEAMIGQVTGKVDAQTLELSDVATREFLARQLDALAALARTLSPRAIT
notes: Gh-ChrR, NAD(P)H-dependent FMN reductase from Gluconacetobacter hansenii ATCC 23769 (ZP_06834583); 193 native residues; codon-optimised synthetic gene in pJexpress411; Monomer 21.3 kDa (193 native residues plus a six-residue C-terminal poly-histidine tag); In the crystal 5-6 N-terminal and 7-9 C-terminal residues are not seen; also called putative chromate reductase; source: E. coli BL21(DE3), …
B2: Gh-ChrR (Novacetimonas hansenii ATCC 23769; S118A) (protein)
chain: B1 chain with S118A
B3: Gh-ChrR (Novacetimonas hansenii ATCC 23769; R101A) (protein)
chain: B1 chain with R101A
B4: Gh-ChrR (Novacetimonas hansenii ATCC 23769; N85A) (protein)
chain: B1 chain with N85A

Experiments:
Gh-ChrR [1] = molecular target: T1, Gh-ChrR (Novacetimonas hansenii, UniProt D5QFC5); test: initial velocities, ordered bireactant model with substrate inhibition; format: biochemical; details: competitive with chromate, dead-end FMN-enzyme-NADH complex
T1 construct: gene GXY_09224; full length (193 native residues) plus C-terminal 6xHis tag kept; E. coli BL21(DE3), codon-optimised
Text: initial velocities, ordered bireactant model with substrate inhibition on Gh-ChrR | Ki is the dissociation constant of the dead-end product of FMN-Gh-ChrR-NADH

Gh-ChrR [2] = molecular target: T1, Gh-ChrR; test: X-ray crystal structure, […] Å; absorbance stoichiometry; format: binding; details: non-covalent, one FMN per monomer, co-purified
Gh-ChrR [3] = molecular target: T1, Gh-ChrR; test: chromate reduction rate; format: biochemical; details: 200 µM NADPH, 5 µM enzyme, 50 mM Tris-HCl, 100 mM NaCl, pH 7.4
purified protein = substrate: [O]=[Cr](=[O])([OH])[OH]; test: purified protein; details: 100 µM NADH, 5 µM enzyme, 50 mM Tris-HCl, 100 mM NaCl, pH 7.4, 37°C, aerobic
[4] = substrate: NC(=O)C1=CN([C@@H]2O[C@H](COP(=O)(O)OP(=O)(O)OC[C@H]3O[C@@H](n4cnc5c(N)ncnc54)[C@H](O)[C@@H]3O)[C@@H](O)[C@H]2O)C=CC1; test: initial velocities, ordered bireactant model with substrate inhibition; format: biochemical, Novacetimonas hansenii; details: varied chromate and NADH, Tris-HCl pH 7.4
Text: initial velocities, ordered bireactant model with substrate inhibition on […] | KmB is the Michaelis-Menten constant of NADH

[5] = molecular target: the molecule itself; test: crystal structure; hanging-drop vapor diffusion at room temperature; protein ~9 mg/mL in 20 mM Tris-HCl, 150 mM NaCl, pH 7.4; precipitant 0.5% PEG4000, 10% isopropanol, 0.1 M HEPES pH 7.5; 2.25 Å; four monomers in the asymmetric unit

Molecule | Km (purified protein) [µM] | Vmax (purified protein) [µmol/min/mg] | kcat (purified protein) [s⁻¹] | kcat/Km (purified protein) [M⁻¹ s⁻¹] | also measured
NC(=O)C1=CN([C@@H]2O[C@H](COP(=O)(O)OP(=O)(O)OC[C@H]3O[C@@H](n4cnc5c(N)ncnc54)[C@H](O)[C@@H]3O)[C@@H](O)[C@H]2O)C=CC1 [NADH] | – | – | – | – | Ki (Gh-ChrR [1]): 3.5 ± 0.7 µM
Cc1cc2nc3c(=O)[nH]c(=O)nc-3n(C[C@H](O)[C@H](O)[C@H](O)COP(=O)(O)O)c2cc1C [FMN] | – | – | – | – | X-ray crystal structure, 2.25 Å; absorbance stoichiometry (Gh-ChrR [2]): Gh-ChrR crystallized with one molecule of FMN associated with each protein monomer
NC(=O)C1=CN([C@@H]2O[C@H](COP(=O)(O)OP(=O)(O)OC[C@H]3O[C@@H](n4cnc5c(N)ncnc54)[C@H](OP(=O)(O)O)[C@@H]3O)[C@@H](O)[C@H]2O)C=CC1 [NADPH] | – | – | – | – | chromate reduction rate (Gh-ChrR [3]): Both NADH and NADPH support maximal chromate reduction by Gh-ChrR
B1 | 240 ± 70 | 0.75 | 0.25 | 1000 | Km [4]: 7 ± 1 µM; stoichiometry N [5]: 4
B2 | 600 ± 20 | 0.9 | 0.3 | 500 | –
B3 | 1900 ± 600 | 0.24 | 0.08 | 40 | –
B4 | 600 ± 100 | 0.16 | 0.053 | 90 | –
